Usually Kd stands for the equilibrium constant for the complex coming apart. Lower therefore signals higher affinity.

In publication PMC7077807 one finds Kd data, which are given here for 1 molecule.

The target of the experiment is Synaptotagmin II, P29101. Briefly: BLI. (Biolayer interferometry detects binding as a change in optical thickness at a sensor tip.)
Chain of Synaptotagmin II, P29101 (P29101 40-60): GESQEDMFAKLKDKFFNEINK

B1: BoNT/B HC HC, P10844 (protein)
chain: SEILNNIILNLRYKDNNLIDLSGYGAKVEVYDGVELNDKNQFKLTSSANSKIRVTQNQNIIFNSVFLDFSVSFWIRIPKYKNDGIQNYIHNEYTIINCMKNNSGWKISIRGNRIIWTLIDINGKTKSVFFEYNIREDISEYINRWFFVTITNNLNNAKIYINGKLESNTDIKDIREVIANGEIIFKLDGDIDRTQFIWMKYFSIFNTELSQSNIEERYKIQSYSEYLKDFWGNPLMYNKEYYMFNAGNKNSYIKLKKDSPVGEILTRSKYNQNSKYINYRDLYIGEKFIIRRKSNSQSINDDIVRKEDYIYLDFFNLNQEWRVYTYKYFKKEEEKLFLAPISDSDEFYNTIQIKEYDEQPTYSCQLLFKKDEESTDEIGLIGIHRFYESGIVFEEYKDYFCISKWYLKEVKRKPYNLKLGCNWQFIPKDEGWTE
As for B1, the Kd stood at 51 µM.
